Experimental data reported in patent US20240199757A1 (UNIVERSITY OF CHICAGO, published 2024).

T1: Full-length cynomolgus NT5E (recombinant) (cynomolgus, UniProt P21589 27-549 (human entry))
T1 construct: also called cNT5E; cyno NT5E
T1 chain: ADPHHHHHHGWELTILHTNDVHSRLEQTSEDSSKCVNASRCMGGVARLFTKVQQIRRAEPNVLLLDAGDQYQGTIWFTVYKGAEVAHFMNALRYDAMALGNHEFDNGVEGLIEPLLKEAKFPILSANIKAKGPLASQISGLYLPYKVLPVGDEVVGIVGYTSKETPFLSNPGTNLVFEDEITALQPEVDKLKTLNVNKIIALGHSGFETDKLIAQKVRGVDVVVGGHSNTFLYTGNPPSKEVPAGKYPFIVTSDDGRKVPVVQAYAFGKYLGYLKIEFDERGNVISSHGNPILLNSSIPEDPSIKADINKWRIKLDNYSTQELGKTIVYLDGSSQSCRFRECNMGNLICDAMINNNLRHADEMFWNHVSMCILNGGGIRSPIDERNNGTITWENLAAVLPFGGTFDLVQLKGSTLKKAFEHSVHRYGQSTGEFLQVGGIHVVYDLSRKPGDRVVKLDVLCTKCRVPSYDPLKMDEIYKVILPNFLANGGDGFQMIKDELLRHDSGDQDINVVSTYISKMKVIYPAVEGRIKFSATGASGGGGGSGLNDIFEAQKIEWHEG

T2: Full-length human NT5E (recombinant, in-house) (human, UniProt P21589 27-549)
T2 construct: also called hNT5E; hNT5EWT
T2 sequence: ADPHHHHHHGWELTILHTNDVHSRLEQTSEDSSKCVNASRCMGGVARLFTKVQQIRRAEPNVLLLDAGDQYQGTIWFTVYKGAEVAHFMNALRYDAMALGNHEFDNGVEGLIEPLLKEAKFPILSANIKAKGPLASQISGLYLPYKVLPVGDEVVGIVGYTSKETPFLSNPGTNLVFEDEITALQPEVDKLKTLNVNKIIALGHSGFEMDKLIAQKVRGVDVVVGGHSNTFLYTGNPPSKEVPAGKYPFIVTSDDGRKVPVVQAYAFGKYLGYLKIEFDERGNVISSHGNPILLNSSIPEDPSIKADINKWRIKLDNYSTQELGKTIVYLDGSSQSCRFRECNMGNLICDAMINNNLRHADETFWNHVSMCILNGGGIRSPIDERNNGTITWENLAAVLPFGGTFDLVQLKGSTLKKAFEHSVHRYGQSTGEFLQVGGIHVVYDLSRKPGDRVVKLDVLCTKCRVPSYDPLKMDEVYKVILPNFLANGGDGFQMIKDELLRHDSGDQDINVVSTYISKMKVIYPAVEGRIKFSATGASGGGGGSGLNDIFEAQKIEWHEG

B1: 1789 Fab (Fab, V domains shown)
VH: EVQLVESGGGLVQPGGSLRLSCAASGFNVSYSSIHWVRQAPGKGLEWVASISSSSGYTYYADSVKGRFTISADTSKNTAYLQMNSLRAEDTAVYYCARNYWGWYPFYYFAFDYWGQGTLVTV
VL: DIQMTQSPSSLSASVGDRVTITCRASQSVSSAVAWYQQKPGKAPKLLIYSASSLYSGVPSRFSGSRSGTDFTLTISSLQPEDFATYYCQQGWDYPITFGQGTKVEIKR
B2: 1789 IgG (antibody, V domains shown)
VH: EVQLVESGGGLVQPGGSLRLSCAASGFNVSYSSIHWVRQAPGKGLEWVASISSSSGYTYYADSVKGRFTISADTSKNTAYLQMNSLRAEDTAVYYCARNYWGWYPFYYFAFDYWGQGTLVTVSS
VL: DIQMTQSPSSLSASVGDRVTITCRASQSVSSAVAWYQQKPGKAPKLLIYSASSLYSGVPSRFSGSRSGTDFTLTISSLQPEDFATYYCQQGWDYPITFGQGTKVEIKR

Key:
[1] = target: T1, Full-length cynomolgus NT5E …; assay: SPR, His-captured NT5E, 1 mM ATP
Method: (§1) All SPR experiments were performed at 25° C. using MASS-1 (Bruker) instrument. hNT5E, mNT5E and cNT5E were immobilized onto a nitrilotriacetic acid (NTA) sensor chip via His-tag. For kinetic experiments, after ligand immobilization, 2-fold serial dilutions of the Fabs were injected. After double-reference subtraction data were analyzed with BiaEvaluation (GE Healthcare) or Sierra Analyser (Bruker) software. The experiments were carried in buffers in presence and absence of 1 mM ATP to compare the kinetic parameters of the Fabs binding to closed and open form of NT5E.

[2] = target: T2, Full-length human NT5E (recombinant, …); assay: SPR, His-captured NT5E, 1 mM ATP
Method: as §1

[3] = target: T1, Full-length cynomolgus NT5E …; assay: ELISA, biotinylated NT5E on neutravidin plate, 1 mM ATP
Method: (B) Protein ELISA: Protein-based multipoint ELISA was performed to estimate the affinity of the generated Fabs and IgGs to NT5E. The binding of the Fabs and IgGs to the closed form of NT5E were determined in ELISA buffer (HBST) supplemented with 10 μM zinc chloride and 1 mM ATP while the binding of the same to open form of NT5E were determined in ELISA buffer (HBST) without any cofactors. A fixed concentration of the immobilized target (50 nM) on ELISA plate was incubated with 3-fold serial dilutions of the purified Fabs and IgGs starting from 3 μM and 1 μM respectively for 15 min. The plates were washed and were subsequently incubated with a secondary HRP-conjugated anti-protein L monoclonal antibody (#32420, ThermoFisher, 1:6000 dilution). As with phage ELISA, the plates were again washed, developed with TMB substrate and quenched with 1.0 M HCl, and absorbance (Abs450) was determined. To determine the affinity (EC50), the data were fitted with a non-linear, 4-parameter logistic curve in OriginLab.

[4] = target: hNT5EDF (substrate binding knock-out variant of hNT5E) (human); assay: DSF thermal shift, 1.5-fold molar excess of Fab, no ATP (hNT5EDF alone 44° C.)
Method: With 1 mM ATP alone (red dashed line), the TM shifts from one transition at 49° C. to two transitions at TM 59° C. and 64° C. […] Thermal shift assays of substrate binding knock-out variants hNT5EDF (FIG. 2B) and hNT5EFF (FIG. 2C) show no change in thermal stability with the addition of ATP.
Thermal stability of samples was analyzed by differential scanning fluorimetry (DSF) using a real-time PCR instrument (Bio-Rad CFX384). Protein samples were mixed with 4× Sypro Orange at a final 4 μM concentration. For target/Fab complexes, 1.5-fold molar excess of Fab was used. All reactions were performed in triplicates in a 384-well plate. Thermal melting curves were monitored from 25° C. to 95° C. in steps of 0.5° C./30 s. Wavelengths of 490 and 575 nm were used for excitation and emission, respectively. The melting temperatures were inferred from the first derivative of the melting curves from the mean of triplicate runs using CFX software provided by the manufacturer.

Binder	Kd [1] [µM]	koff [1] [s⁻¹]	kon [1] [M⁻¹ s⁻¹]	Kd [2] [µM]	koff [2] [s⁻¹]	kon [2] [M⁻¹ s⁻¹]	EC50 [3] [µM]	TM of NT5E in the presence of the Fab [4] [° C.]
B1	0.032	0.0051	160000	0.042	0.0073	170000	0.028	48
B2							0.00057	
